Assay results reported in the RNAGym collection of RNA variant scans (doi:10.1073/pnas.2313332121).
This sample holds only a part of the variants without activity.

B1: TPR 5TU (parent)
chain: GGAUCUUCUCGAUCUAACAAAAAAGACAAAUCUGCCACAAAGCUUGAGAGCAUCUUCGGAUGCAGAGGCGGCAGCCUUCGGUGGCGCGAUAGCGCCAACGUUCUCAACUAUGACACGCAAAACGCGUGCUCCGUUGAAUGGAGUUUAUCAUG

Variants of: B1
Assay: polymerase ribozyme fitness, log enrichment relative to wild type (log ratio); higher = more active; in vitro selection for triplet polymerase activity
Outline: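 Each subunit of a heterodimeric triplet polymerase ribozyme was mutagenized into a library by PCR, transcribed, and subjected to one round of in vitro selection, run in triplicate. Libraries were annealed with a biotinylated primer, the partner subunit and triplets, incubated frozen at −7 °C, and extended constructs were gel-excised, captured on streptavidin beads and recovered by RT-PCR. Input and output libraries were sequenced on Illumina, keeping genotypes with ≥10 input reads and ≥1 read per output. Fitness is log base 2 of genotype enrichment divided by wild-type enrichment, from inverse-variance-weighted replicate averages.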

Point of comparison: C87U C103U, “polymerase ribozyme fitness (log ratio)” value -0.658. Against it:
- C87U A106G — within 0.2 log units, -0.549
- A89G G126U U148G — lower, -4.06
- G86C G124A U144A — lower, -2.44
- C87A G133C U145C U146C — lower, ≤ -4.2
- G86U U104G C116A — lower, -2.52
- G88A A110G — lower, ≤ -4.2
- G86U A98U U111G C114U — lower, -3.81
- G86U U148A — lower, -3.6
- G86A C116G A150C — lower, -3.93
- C87U U109C — lower, -3.46
- C85U U134C U144A C149A — lower, -4.1
- C87G G94C C132G — lower, ≤ -4.2
- G88C A137U G143A — lower, ≤ -4.2
- G86A A150C — lower, ≤ -4.2
- G86A A150G — lower, -3.09
- G88C C95U — lower, ≤ -4.2
- A89U A91U C93U C95A — lower, ≤ -4.2
- G86U C93G — lower, -1.28
- G86A A122G — lower, -1.11
- A89G C131A — lower, -2.5
- G86C C114U — lower, -3.9
- C87A C93U C95U G100A C116U A121G C129A U130G — lower, ≤ -4.2
- C87A G141A — lower, -3.89
- C87A G141U — lower, -3.64
- G86C C131U — lower, -2.55
- G86U G92C — lower, -2.75
- G86U G92U — lower, -1.95
- C87U G100U C114U — lower, ≤ -4.2
- C87A A91G — lower, ≤ -4.2
- C87U A115U G140U — lower, -4.19
- C85U G136U — lower, -1.83
- G86A A113C — lower, -3.53
- G86U U101C C118U — lower, -1.56
- G86A U90A — lower, -3.67
- C87G G112U — lower, ≤ -4.2
- C87G U104G — lower, ≤ -4.2
- C87U G143U — lower, -2.69
- A89C C96U A97C C99U — lower, -3.09
- C87U U102C — lower, -1.21
- C85U U146A — higher, -0.167
- C85U U146G — within 0.2 log units, -0.713
- A89G A98G G143C — lower, -3.66
- G88C A115U — lower, ≤ -4.2
- C87A C93A C95G A121U U127G G140A — lower, ≤ -4.2
- C87U C96G A113U — lower, -2.85
- G86U C108U — lower, -4.14
- C87G C149U — lower, ≤ -4.2
- C85U U135G G141A — lower, -3.54
- C87U G94C — lower, -2.05
- G86U A137G — lower, -3.03
- G86U C125U — lower, -2.02
- G88U A106G — lower, -3.91
- A89U C93G — lower, -3.68
- A89U C93U — lower, -1.6
- G86A A89U C105U U134A — lower, -3.77
- G86A A110U — lower, ≤ -4.2
- A89G G94A G100C — lower, ≤ -4.2
- A89C C125A — lower, -1.13
- G88U C96U G124C G136U — lower, ≤ -4.2
- G88C A147C G152U — lower, ≤ -4.2
- C87U C125A C131U — higher, 0.186
- C87U C123U C149G — lower, -2.65
- G86U C118U — lower, -1.69
- A89G A98U — lower, -1.66
- A89G G92U C125U U146C — lower, -1.03
- G86A A110G U145A C149G — lower, ≤ -4.2
- C87U G117A — higher, -0.356
- C87U C129A — lower, -2.76
- C87U C96U C125U U144A — lower, -2.68
- A89U A91U — lower, ≤ -4.2
- G86U A89U A113U C131G — lower, ≤ -4.2
- C87A U144G — lower, -3.92
- C87A U144C — lower, ≤ -4.2
- G88C G143C — lower, -3.92
- G86C A98C — lower, -1
- G86U C87A C95A U104A — lower, ≤ -4.2
- C85U U146G U148C — lower, -2.24
- G86U C149A — lower, ≤ -4.2
- G88A G136A — lower, -3.83
- C87A G92U — higher, 0.159
- G86A C149A — lower, ≤ -4.2
- G86A A122G U148G — lower, ≤ -4.2
- G88C U101C A113C U139G — lower, ≤ -4.2
- C87A A91G G152U — lower, -4.13
- G88C A97C A110G — lower, ≤ -4.2
- G88U U130A A147C — lower, ≤ -4.2
- G86C C116U — lower, -2.44
- G86U U90G A98U G143C — lower, ≤ -4.2
- C87U G140U — lower, -3.68
- C87A G140C — lower, ≤ -4.2
- G86U U104A G117C — lower, -2.37
- C87A A106U — lower, -4.18
- G88A A91C — lower, ≤ -4.2
- C85U G128U C131U — lower, -2.93
- C87U U145A — higher, 0.0527
- C87U U145G — lower, -1.51
- G86U C105A — lower, -2.68
- G88A A110G A122U — lower, -3.97
- G88C A97U C103A G128C U134C U146C — lower, ≤ -4.2
- C85U U139C — lower, -3.16
- C85U U139G — higher, -0.28
- A89C C103A — lower, -2.11
- C87G C105G — lower, ≤ -4.2
- C87U C103G — lower, -2.13
- C87G U134A — lower, ≤ -4.2
- C87G U139A — lower, ≤ -4.2
- G86U C93G A106G C132U U148A — lower, -3.05
- A89G C95G C132U — lower, -3.36
- A89C C99U C114U — lower, -2.63
- G88C C93G U102C G124A — lower, ≤ -4.2
- A89U C93G A147U — lower, -2.7
- G86C G136A — lower, -1.38
- C87A U90G U134G — lower, ≤ -4.2
- G86C U145C — lower, -3.66
- C87G A89U — lower, ≤ -4.2
- C87A A89U C129G — lower, ≤ -4.2
- C87U A122G — lower, -1.83
- A89G G124U — lower, -1.93
- C87A C123A A150U — lower, -3.19
- C85U U148A — lower, -3.08
- C85U U148C — lower, -2.19
- C87U C105G A121U A122U — lower, -1.19
- C87U A97U — lower, -2.25
- C87A C93G C114U G141C — lower, ≤ -4.2
- C87U G133U — lower, -2.95
- A89U C93U C125U U127A A142U C149U — lower, ≤ -4.2
- G86U A120G C129A U145G — lower, -4.13
- A89U A97G U134A G141C — lower, -3.84
- C87A C96U C99G U111C C125A — lower, ≤ -4.2
- C87U U101G A137C — lower, -3.73
- C87U G141U — higher, 0.462
- A89G U111C — lower, ≤ -4.2
- A89G A122C — lower, -1.77
- G86A A110U A138G — lower, ≤ -4.2
- G88U G141U — lower, -3.23
- C87G G140C — lower, ≤ -4.2
- C85U G141C — within 0.2 log units, -0.765
- C85U G141U — higher, 1.07
- G86A C118U G141C — lower, -1.77
- G88A U144G — lower, -3.35
- G86A C105U — higher, -0.138
- A89C C93G C96U U148G — lower, ≤ -4.2
- G86U A89C A119C — lower, -3.83
- G88C C114U G141U — lower, ≤ -4.2
- C87U G88U — lower, ≤ -4.2
- G86A A107U — lower, -3.39
- C87U A107U — lower, -3.34
- G88A C96A C125U G126U — lower, ≤ -4.2
- C87U U151G — lower, -3.96
- C87A U151G — lower, ≤ -4.2
- G88U C116U A137C C149G — lower, ≤ -4.2
- A89C A150G — lower, -0.921
- G86U A119G — lower, -1.54
- C87A U90C G117C — lower, -3.77
- C85U G100U A121C G124A C125G G136A A142G G152U — lower, ≤ -4.2
- C87G A106G — lower, -4
- G88A A106G — lower, -3.55
- C87U A91U A98G A138G G152A — lower, ≤ -4.2
- A89U C95G A122G — lower, -1.39
- G86U A142G — lower, -2.35
- C87U A106G U139C — lower, -3.59
- C87A A138C — lower, ≤ -4.2
- C87A A107C U139C U151A — lower, ≤ -4.2
- C85U G136U G152C — lower, ≤ -4.2
- C87U C105G — lower, -1.18
- A89C C96U — lower, -1.26
